Measurements published in the RNAGym collection of RNA variant scans (doi:10.1093/nar/gkz1192).

B1: CPEB3 Ribozyme (parent)
chain: UAACAGGGGGCCACAGCAGAAGCGUUCACGUCGCAGCCCCUGUCAGAUUCUGGUGAAUCUGCGAAUUCUGCUGUAUAUCUC

Variants of: B1
Assay: self-cleavage, relative activity (ratio to wild type); higher = more cleavage; in vitro, sequencing
Outline: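 Libraries of CPEB3 self-cleaving ribozyme mutants came from rounds of error-prone PCR and carried barcodes, which DNA sequencing matched to variants. In vitro transcription used T7 RNA polymerase at 37°C for 5 hours, with a further 15 min in DNase I before EDTA stopped the reaction; the ribozymes cleaved during both steps. The RNA was reverse transcribed with template switching and sequenced on Illumina. Relative activity is the cleaved/total read fraction of a variant divided by that of the unmutated ribozyme, averaged over three batches with at least 5 reads.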

| Variant | self-cleavage |
| --- | --- |
| G7U A18G | 0.19 |
| G7A U78C | 0.15 |
| G7A U78G | 0.08 |
| G7A U66C | 0.13 |
| G7U G73U | 0.23 |
| G7A U67A | 0.17 |
| G7A U67C | 0.25 |
| G7A U69A | 0.39 |
| G7A U69C | 0.26 |
| G7A G53A | 0.19 |
| G7A U58A | 0.27 |
| G7A U58C | 0.13 |
| G7U C29U | 0.09 |
| G7C G9A | 0.23 |
| G7C G9U | 0.36 |
| G7U A21U | 0.34 |
| G7U A21G | 0.31 |
| G7U U31A | 0.07 |
| G7U U31C | 0.15 |
| G7A C40U | 0.3 |
| G7A C40A | 0.18 |
| G7C A35C | 0.09 |
| G7C A35G | 0.31 |
| G7A G10A | 0.24 |

| Variant | self-cleavage |
| --- | --- |
| G7C U67C | 0.19 |
| G7C G24C | 0.15 |
| G7C G61C | 0.1 |
| G7A U49C | 0.2 |
| G7A G33U | 0.07 |
| G7U U26A | 0.21 |
| G7U U26C | 0.15 |
| G7A U43G | 0.15 |
| G7A U43C | 0.21 |
| G7A U43A | 0.32 |
| G7U C32U | 0.07 |
| G7C A75U | 0.31 |
| G7U G33A | 0.11 |
| G7C A47G | 0.43 |
| G7A G24A | 0.08 |
| G7A U48A | 0.31 |
| G7A U48C | 0.16 |
| G7U G30A | 0.16 |
| G7U C62G | 0.17 |
| G7U C62U | 0.21 |
| G7A G8C | 0.15 |
| G7U G24A | 0.22 |
| G7U U41C | 0.21 |
| G7U C34U | 0.07 |

| Variant | self-cleavage |
| --- | --- |
| G7A U26A | 0.28 |
| G7A U26G | 0.07 |
| G7A U26C | 0.25 |
| G7U U48A | 0.07 |
| G7U U49C | 0.11 |
| G7U C39U | 0.19 |
| G7A U25A | 0.15 |
| G7A U25C | 0.33 |
| G7C U25C | 0.27 |
| G7C U25A | 0.27 |
| G7C U48C | 0.4 |
| G7A U60A | 0.37 |
| G7A U60C | 0.11 |
| G7C U31A | 0.25 |
| G7C U31C | 0.41 |
| G7U U54C | 0.24 |
| G7U C17U | 0.2 |
| G7C U69C | 0.2 |
| G7C A21G | 0.34 |
| G7C U72C | 0.37 |
| G7C U72G | 0.27 |
| G7A G46U | 0.39 |
| G7A G46A | 0.07 |
| G7U U58A | 0.25 |

| Variant | self-cleavage |
| --- | --- |
| G7U U58C | 0.2 |
| G7U A47C | 0.37 |
| G7U A47G | 0.29 |
| G7U U60C | 0.1 |
| G7C U54A | 0.22 |
| G7C U54C | 0.34 |
| G7C U41C | 0.2 |
| G7U A64C | 0.13 |
| G7U A64U | 0.13 |
| G7U A64G | 0.14 |
| G7U A15G | 0.27 |
| G7U A15U | 0.23 |
| G7A U51C | 0.2 |
| G7A U51G | 0.1 |
| G7A U51A | 0.35 |
| G7C C32U | 0.12 |
| G7C G30U | 0.14 |
| G7C A18G | 0.33 |
| G7U U25C | 0.2 |
| G7U U25A | 0.15 |
| G7U A13G | 0.18 |
| G7U A13U | 0.34 |
| G7U C50A | 0.06 |
| G7C A56G | 0.23 |

| Variant | self-cleavage |
| --- | --- |
| G7U A20U | 0.11 |
| G7U A20G | 0.27 |
| G7U A45C | 0.2 |
| G7U A45U | 0.14 |
| G7U A45G | 0.22 |
| G7C C50A | 0.29 |
| G7U A35G | 0.14 |
| G7U A35U | 0.38 |
| G7A G16C | 0.23 |
| G7A U31G | 0.14 |
| G7A U31C | 0.25 |
| G7C A45G | 0.26 |
| G7A G73A | 0.48 |
| G7C A20U | 0.22 |
| G7A U74C | 0.5 |
| G7A U74A | 0.09 |
| G7U A56U | 0.16 |
| G7U A56G | 0.23 |
| G7A U72C | 0.48 |
| G7A C62U | 0.22 |
| G7U G63A | 0.33 |
| G7A U41C | 0.25 |
| G7A U41A | 0.13 |
| G7C U49A | 0.26 |

| Variant | self-cleavage |
| --- | --- |
| G7C A13C | 0.09 |
| G7C A13G | 0.32 |
| G7C A13U | 0.26 |
| G7C U80C | 0.27 |
| G7C U80A | 0.37 |
| G7U G42U | 0.14 |
| G7U A75G | 0.2 |
| G7U A75U | 0.13 |
| G7C A57U | 0.19 |
| G7C U60C | 0.2 |
| G7U U51C | 0.28 |
| G7U U51A | 0.21 |
| G7U U51G | 0.2 |
| G7U A65G | 0.4 |
| G7C A65G | 0.22 |
| G7A C29A | 0.36 |
| G7A C32U | 0.09 |
| G7U C79A | 0.28 |
| G7C U66C | 0.5 |
| G7C A15G | 0.21 |
| G7C A15U | 0.18 |
| G7C A64G | 0.35 |
| G7A C37A | 0.11 |
| G7A G55A | 0.15 |

| Variant | self-cleavage |
| --- | --- |
| G7A G55U | 0.2 |
| G7A G70C | 0.06 |
| G7U A57G | 0.19 |
| G7C U43A | 0.24 |
| G7C U43C | 0.36 |
| G7A G30A | 0.35 |
| G7C C37U | 0.24 |
| G7U U43C | 0.38 |
| G7U U43A | 0.09 |
| G7C U26C | 0.35 |
| G7C | 0.29 |
| G7U | 0.25 |
| G7C U51C | 0.28 |
| G7U C37A | 0.17 |
| G7U C37G | 0.53 |
| G7A C59A | 0.04 |
| G7A U80A | 0.25 |
| G7A U80C | 0.29 |
| G7A U54C | 0.38 |
| G7A U54G | 0.22 |
| G7A U54A | 0.47 |
| G7U G55A | 0.08 |
| G7U G36C | 0.14 |
